Experimental data as given in paper PMC12284271, “Coupling chromosome organization to genome segregation in Archaea”.

T1: SegB (SegBSs) (Saccharolobus (Sulfolobus) solfataricus P2), ORF:2e81311c
T1 sequence: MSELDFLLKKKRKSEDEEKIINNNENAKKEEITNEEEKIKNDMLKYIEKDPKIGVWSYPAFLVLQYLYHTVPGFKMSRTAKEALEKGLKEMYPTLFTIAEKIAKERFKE

T2: SegB (SegBSa) (Sulfolobus acidocaldarius, UniProt Q4JC57 1-151)
T2 sequence: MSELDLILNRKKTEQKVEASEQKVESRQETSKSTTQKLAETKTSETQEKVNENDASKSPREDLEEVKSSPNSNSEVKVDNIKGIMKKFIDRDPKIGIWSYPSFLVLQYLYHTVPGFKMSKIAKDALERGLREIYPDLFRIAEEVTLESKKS


Assays:
[1] = test system: T1, SegB (SegBSs) (Saccharolobus (Sulfolobus) solfataricus P2), ORF:2e81311c; assay: DNase I footprinting; conditions: EMSA and footprint: 10 mM Tris-HCl pH 7.5, 50 mM KCl, 1 mM DTT, 5 mM MgCl2, 2.5% glycerol, 0.05% NP-40, 1 ug poly(dI-dC), 37 C, 20 min, DNA 1-5 nM
[2] = test system: T1, SegB (SegBSs) (Saccharolobus (Sulfolobus) solfataricus P2), ORF:2e81311c; assay: EMSA; conditions: EMSA and footprint: 10 mM Tris-HCl pH 7.5, 50 mM KCl, 1 mM DTT, 5 mM MgCl2, 2.5% glycerol, 0.05% NP-40, 1 ug poly(dI-dC), 37 C, 20 min, DNA 1-5 nM
[3] = test system: T1, SegB (SegBSs) (Saccharolobus (Sulfolobus) solfataricus P2), ORF:2e81311c; assay: AFM; conditions: EMSA and footprint: 10 mM Tris-HCl pH 7.5, 50 mM KCl, 1 mM DTT, 5 mM MgCl2, 2.5% glycerol, 0.05% NP-40, 1 ug poly(dI-dC), 37 C, 20 min, DNA 1-5 nM
[4] = target: SegB (Saccharolobus solfataricus) (S. solfataricus); assay: MST; SegB labelled with NT-647 at 304 nM final; unlabelled SegA serially diluted 1:1 over fifteen tubes; 10 mM Tris-HCl pH 7.4, 100 mM NaCl, 0.05% Tween 20; 20% LED power, 40% MST power
SegB (SegBSa) = target: T2, SegB (SegBSa); assay: EMSA; EMSA and footprint: 10 mM Tris-HCl pH 7.5, 50 mM KCl, 1 mM DTT, 5 mM MgCl2, 2.5% glycerol, 0.05% NP-40, 1 ug poly(dI-dC), 37 C, 20 min; DNA 1-5 nM, SegB 0-1000; conditions: protein: recombinant; (pET22b NdeI/XhoI); chain copies: 2; label: 5' biotin on strand 1; blunt

Molecule | binding [1] | binding [2] | also measured
GAATGTCACAAGGTTCTTTTCCTATATACTTAAAACAAGAGAAAAGTAGAGAAATATTCTATTATACTCTCTTTTTCCTAAATTTTAATCTTAAACTTAAGGGAAGTAGAGTCTAGACTCACGTTAGGGTATGAAATTATCTCATCCTAATTTTTATTTGGCATAACGCTAATATGAAAAACATAAATAGTTAGAGTGTT (double strand) [peak D fragment] | binds | binds | 
AGTAAGATAAATTTACTGAAGTCGTTGTTTTGCCTACTCCTCCTTTCTGATTTATTACTGTGACTATCATGTCTAGACTCTTCTATCTATAACGTTTAATAAGGAATTCTACATGATAATACTGACGAGTCCACCATATTATAATGATAATATTTATATGCTAGATTTTTAAAAAGTATAAGTATGTTTGAGAAGCTCTATAGTGCAATAATTTATTCTGATGAATTTAAAAAAATACTATTGGGAAGAGGTGTAGATGACTTAGAGATAGCTTCAGCCTACATAGCGT (double strand) [289 bp segAB upstream fragment (sites 1, 2, 3)] |  |  | binding [3]: binds
GCTCGTAATTGAGGCCAAAATTCACAAAAATGATTACCTACAGACTCTAGAGTACTCTAAATATTTCAAGTACGGTATGGCAGTATTTCCATTTACTGGAGAGTGTAGAGTACCTAAAGGTTGGATTTGTATATTTAACACCACAAAGGATCAGTCTAGATTCTACTCTCTTCTTGAAGATTTATTATCTAGAGTTAAGT (double strand) [peak B-6 fragment] | binds | binds | 
CTCAGCTGTCGGTAATACGATTTAGAAAGGATGAAATCGCTTATTCAATTTACTCTAATAAGCGACTAGAGTCTATAAGAAACACTCTAGAGTATTCTACCATAGAGGGAGAAGGCTTATTCAATGGATGCATTCTATGCGGTAAATGTGTTAGTGTTTGCCCTTACGGTAAACAAACTAATGACGTATTCCATACTCCT (double strand) [peak B-3 fragment] | binds | binds | 
GCATCTATGGCATCTGAATTGGGTATATAACCATATTCTACTTCTATTCCCATATCTTCATCACTAACGTAGAGATCAAGTAGTTTTCCTTTCTTCTCATACTCCACGAATACTCTATAGCCTAGACTCTTGAAGTAAGCAGATAATATTAATTGTAGACTGGAGTGGTTAATATTTGTGAATCCTAATTCATAAAAATC (double strand) [peak B-5 fragment] | binds | binds | 
SegA (Saccharolobus solfataricus) (natural protein) |  |  | Kd [4]: 0.046 µM
saci0204(-47) 50 bp oligonucleotide (dsDNA) DNA 1: TTATGAGAAGAATCTGAAATAAAGGGTATAGAGTTAAGAGTCTATATATG DNA 2: CATATATAGACTCTTAACTCTATACCCTTTATTTCAGATTCTTCTCATAA |  |  | binding result (SegB (SegBSa)): binds
